# Residue numbers refer to the chain shown, from its start.
# B1: 18E3 (antibody, human IgG1, kappa, N297G)
# heavy: not shown
# light: EIVLTQSPGTLSLSPGERATLSCRASQSISYSYLAWYQQKPGQAPRLLIYGASSRATGIPDRFSGSGSGTDFTLTISRQEPDDFAVYYCQQYGSSPLTFGGGTKVEIKRTVAAPSVFIFPPSDEQLKSGTASVVCLLNNFYPREAKVQWKVDNALQSGNSQESVTEQDSKDSTYSLSSTLTLSKADYEKHKVYACEVTHQGLSSPVTKSFNRGEC
# B2: 18E3.003 (antibody, human IgG1, kappa, N297G)
# heavy: not shown
# light: B1 light
# B3: 18E3.002 (antibody, human IgG1, kappa, N297G)
# heavy: not shown
# light: B1 light with Q79L
# B4: 18E3.004 (antibody, human IgG1, kappa, N297G)
# heavy: not shown
# light: B1 light with Q79L
# B5: 17H11.004.001 (antibody, human IgG1, kappa, N297G, V domains shown)
# VH: QVQLQESGPGLVKPSETLSLTCTVSGGSISSYYWSWIRQPAGKGLEWIGRIYTSGSTNYNPSLKSRVTMSIDTSKNQFSLKLNSVTAADTAVYYCARDVAVAGFDYWGQGTLVTVSS
# VL: DIQMTQSPSSVSASVGDRVTITCRASQGLIIWLAWYQQKPGKAPKLLIYAASSLQSGVPSRFSGSGSGTDFTLTISSLQPEDFATYYCQQTNSFPPTFGQGTKVEIKR
# notes: also called iPS:359621; iPS:359623
# B6: 18F2.009 (antibody, human IgG1, kappa, N297G, V domains shown)
# VH: not shown
# VL: DIQMTQSPSSLSASIGDRVTITCRASQDLRNYLGWYQQKPGKAPKLLIYGASSLQSGVPSRFSGSGSGTEFTLTISSLQPEDFATYYCLQHNNYPFTFGPGTKVDIKR
# B7: 4H9.004.006 (antibody, human IgG1, kappa, N297G, V domains shown)
# VH: not shown
# VL: B6 VL with I15V, D28G, L29I, Y32E, A84V, N93S, P100Q, I106V
# B8: 4H9.004.005 (antibody, human IgG1, kappa, N297G, V domains shown)
# VH: not shown
# VL: B6 VL with I15V, D28G, L29I, Y32E, L46R, A84V, N93S, P100Q, I106V
# B9: 18F2.010 (antibody, human IgG1, kappa, N297G, V domains shown)
# VH: QVQLVESGGGVVQPGRSLRLSCAASGFTFSNFGMHWVRQAPGKGLEWVAVIWYDASNENYADSVKGRFTISRDNSKNTLYLQMNSLRAADTAVYYCARDGTIFGVVLGDYWGQGTLVTVSS
# VL: B6 VL
# B10: 2G10_LC1.003 (antibody, human IgG1, kappa, N297G, V domains shown)
# VH: not shown
# VL: EIVMTQSPATLSVSPGERATLSCRASQSVSSNLAWYQQKPGQAPRLLIYGAATRATGIPARFSGSGSGTEFTLTISSLQSEDFAVYYCQQYNNWPLTFGGGTKVEIKR
# B11: 2G10_LC1.005 (antibody, human IgG1, kappa, N297G, V domains shown)
# VH: not shown
# VL: B10 VL
# B12: 2G10_LC1.007 (antibody, human IgG1, kappa, N297G, V domains shown)
# VH: not shown
# VL: B10 VL with Q79E, S80P, W94F
# B13: 2G10_LC1.010 (antibody, human IgG1, kappa, N297G, V domains shown)
# VH: not shown
# VL: B10 VL with Q79E, S80P
# B14: 2G10_LC1.008 (antibody, human IgG1, kappa, N297G, V domains shown)
# VH: not shown
# VL: B10 VL with Q79E, S80P, W94Y
# B15: 2G10_LC1.009 (antibody, human IgG1, kappa, N297G, V domains shown)
# VH: not shown
# VL: B10 VL with Q79E, S80P
# B16: 2G10_LC1.004 (antibody, human IgG1, kappa, N297G, V domains shown)
# VH: QVQLVESGGGVVQPGRSLRLSCAASGFTFSNYGMHWVRQAPGEGLEWVAAIWFDASDKYYADSVKGRFTISRDNSKNTLYLQMNSLRAEDTAVYYCARDQAIFGVVPDYWGQGTLVTVSS
# VL: B10 VL
# B17: 2G10_LC1 (antibody, human IgG1, kappa, N297G, V domains shown)
# VH: B16 VH with A55G
# VL: B10 VL with F62V
# B18: 6A5.004.007 (antibody, human IgG1, kappa, N297G, V domains shown)
# VH: QVQLVESGGGVVQPGRSLRLSCAASGFSFSSYGMHWVRQPPGKGLEWVAAIWYDANNKYYADAVKGRFTISRDSSKNTLYLQMNSLRAEDTAVYYCARDRTIFGVVLEYWGQGTLVTVSS
# VL: not shown
# B19: 6A5.004.008 (antibody, human IgG1, kappa, N297G, V domains shown)
# VH: B18 VH with A55G
# VL: DIQMTQSPSSLSASVGDRVTITCQASQDITNYLNWYQQKPGKAPKLLIYDASNLEPGVPSRFSGSGSGTDFTLTISSLQPEDFATYYCQQYDDLFTFGPGTKVDIKR
# B20: 5G12.006.001 (antibody, human IgG1, kappa, N297G)
# heavy: not shown
# light: DIQLTQSPSSLSASVGDRVTITCRASQTISRFLNWYQQKPGKAPELLIYVASSLQSGVPSRFSGSGSGTDFTLTISSLQPEDFATYYCQQSYSTLISFGQGTKLEIKRTVAAPSVFIFPPSDEQLKSGTASVVCLLNNFYPREAKVQWKVDNALQSGNSQESVTEQDSKDSTYSLSSTLTLSKADYEKHKVYACEVTHQGLSSPVTKSFNRGEC
# B21: 5G12.006.005 (antibody, human IgG1, kappa, N297G, V domains shown)
# VH: QVQLVESGGGVVQPGRSLRLSCAASGFTFSSYGIHWVRQAPGKGLEWVAVIWYDASNKFHADSVKGRFTISRDNSKNTLYLQMNSLRAEDSAMYFCARGKVAGMPEAFEIWGQGTKVTVSS
# VL: DIQLTQSPSSLSASVGDRVTITCRASQTISRFLNWYQQKPGKAPELLIYVASSLQSGVPSRFSGSGSGTDFTLTISSLQPEDFATYYCQQSYSTLISFGQGTKLEIKR
# B22: 5G12.006.006 (antibody, human IgG1, kappa, N297G, V domains shown)
# VH: not shown
# VL: B21 VL
# B23: 5G12.006 (antibody, human IgG1, kappa, N297G, V domains shown)
# VH: B21 VH with A23T, A55G
# VL: B21 VL with K107T
# B24: 5G12.006.002 (antibody, human IgG1, kappa, N297G, V domains shown)
# VH: not shown
# VL: B21 VL
# B25: 5G12.005.001 (antibody, human IgG1, kappa, N297G, V domains shown)
# VH: not shown
# VL: B21 VL with E45K, I96L
# Biological target: T1, Rhesus GIPR (rhesus, UniProt F7E1R9 22-466)
# T1 sequence: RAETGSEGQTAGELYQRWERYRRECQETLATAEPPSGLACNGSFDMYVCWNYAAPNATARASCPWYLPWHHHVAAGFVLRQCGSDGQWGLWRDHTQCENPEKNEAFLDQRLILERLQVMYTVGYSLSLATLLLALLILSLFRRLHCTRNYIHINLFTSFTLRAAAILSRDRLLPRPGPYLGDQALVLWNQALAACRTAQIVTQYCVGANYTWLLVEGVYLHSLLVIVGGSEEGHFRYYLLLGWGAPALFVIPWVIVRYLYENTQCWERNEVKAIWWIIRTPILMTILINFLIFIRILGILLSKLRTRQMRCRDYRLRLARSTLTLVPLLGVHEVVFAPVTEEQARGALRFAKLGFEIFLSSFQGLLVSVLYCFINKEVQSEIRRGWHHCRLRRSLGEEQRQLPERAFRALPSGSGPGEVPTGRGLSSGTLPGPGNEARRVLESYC
# Experiment: cell-based or functional assay
row,Binder,Rhesus GIPR CAMP Assay (Conc. mAb @ 60% Inhibition in nM) [nM]
1,B1,0.25
2,B2,0.12
3,B3,0.16
4,B4,0.06
5,B5,0.22
6,B6,1.28
7,B7,0.35
8,B8,0.65
9,B9,1.75
10,B10,0.85
11,B11,0.43
12,B12,16.3
13,B13,0.86
14,B14,4
15,B15,0.71
16,B16,0.58
17,B17,0.67
18,B18,0.61
19,B19,0.82
20,B20,0.9
21,B21,5.3
22,B22,0.9
23,B23,0.8
24,B24,1
25,B25,10.9
